For the assay, the target named is MARY-MVP (protamine-tagged human major vault protein). The assay is described as follows: dynamic light scattering; DLS radii at varying MARY-MVP (0 to 7.3 nM) with INT-CFP fixed at 8.3 nM, pH 6.5 phosphate buffer, 50 mM NaCl, 1.5 mM MgCl2, after concentration.

“MARY-MVP (protamine-tagged human major vault protein)”: the concentration of the transition from monomer to VLP came out at 5 nM.

The values above are taken from article PMC12786146.
